Assay results: a protein production outcome set (Wang et al. 2014)

Assay: label from the status in PepcDB records
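Note: failed if final PepcDB status was selected cloned or expressed and not failed if soluble or beyond.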

Sequence | protein production
MQDTLPSRREIAPDSTRPPPTHDDVRAQLNRIITSPQFPHIGRSAAFLTYAVEETLAGRADRIKGYSIAVEVFKRSNGFTQDDPVVRIEAGRLRRVLERYYFTAGQHDPIRIDIPKGGYVPTFAWTSPSEDNSDAEDQSLPPEHASSLFPGLRRHIWTVVLGLIVIVGGASALAGLTSIRFSSIWPFATADITESDGPTLVIAPFANLGDGPQAELYTTGLTEELLTALPRFKEIKVFGRETSRSLPPEVETSRIRGELGARFLLAGGVRVSGSRVRVTARLLDTQTDEILWSQTYDDDIGVRDLFTIQSDVANKVATAVAQPYGIMAQADVSNPPPDDLGSYGCTLSFYAYRAELSIERHGEVRNCLESAVARYPSFATAWAMLSIIYLDEDRFRFNRKPISSTPIDRSFQAARRAVQLDPGNTRALQALMTTLFFSQRVSEALQIGERALATNPNDTELLAEFGTRLAMSGEWQRGAALLDRAIALNPAGGGYYRGTRALAAYMLHDDKTAVIEIRQADLQKFPLFHAVAAVIYVDAGMIDDARSEAARFNEMRPDFIPNIVAELKVRNFQPQDRARMIADLRTAGLLVRDEVQATMSLPIDDSKALQPR | failed
MKQLMLYCRSGFEKECAGEIQDKATQLEVYGFPRVKKNSGYVVFECYQDGDAEKLVKGLDFSSLIFARQMFAVAAEFEALPSEDRISPILAELSEFESFPRCGDLRIETPDTNEAKELLKFCRKFTVPMRQALRGKGLMWNKDNAKKPVLHICFVAPGHCYVGYSLPGNNSQFFMGIPRLKFPADAPSRSTLKLEEAFHVFIPRDEWDERLAPGMWGVDLGACPGGWTYQLVKRSMFVHCVDNGMMADSLMETGQIKHHMVDGFKFEPDRKNVTWIVCDMVEKPARVAHLMGQWLLKGWAKEAIFNLKLPMKGRYDEVLQDLENLKMFLIENKVKFKLQAKHLYHDREEITIHIQCLSNISPH | failed
MEIIIYIFVSIAIISLQAITPFVIRKSECFGVNVGERANRNAELTQLKKQYVGQVILWTVLVAIIGIALIQGFHWSENIQAGIFIISMFGQLIVSFIIYYRFHHTTLQWKREKIESGEISTNSIIMVDTSFHRRKMVISYTWFVVPLLIFIITLAITAVFYPFAPEEFPVHFDMNGVVTDTVQKSVRAALLLPMLQLGMIALFIFINFVIARSKQTVENENPADSLKRNMLFRQISSKAMLIMCVILVIDFLVMQAVILLSLSPEIMMITMSISIILILLGTVLLAVKVGQGGSRLKFANEPDNVNKPIRDDDAFWKAGVIYFNRNDPALFVEKRFGIGWTINTARPVAWLTFVFIIAAIVFISILF | failed
GTPVSDAEEIKVKYGCALSELVSKDDTVNVPSVGGRPSRSLQRQTLSEVIEPRYSELMGLVNQTIDSVQAKLREEGIKHH | failed
MSGRHLMYLDYLVPSWHEIESRVIAMVGYQSGGQFRTSLNEEVASLGLNLRRIEAVRTAFYHAEWQAAHMLRQRFADLDINSIIDELLRVVQQMAMIVVGSTITGGLLGATVGAFAGGAGTIPLAGAGAVMGLKVSGWILGALGLASIAEFFVEGLPRIGG | failed
MILSRYIARRFLRMVFIVFLAFFGLMMLIDVLDQMRRFSDEGITLVQAGLLSLLRVPATLYTILPLIVILAAVALFLGLARSSELVVVRAAGRSGLRFLVAPMVVALALGTVAVTVLNPIVAGTSRQYDAAAGRLARGEASILSISKEGLWLRQGGSGEQTVIHALRSNTDGTRLYAVTFLTFDAEGRPTGRIAAEQAALERGYWQLSGAKSWDLTEANPEARAGLPGNLRVTSELTREGIQDSFGDPSAIPIWELPAYVAGLERAGFSARKHRVWMQMEFALPATLAAMVLVAAGFTMRHSRFGGTGRMVLLALLGGFSLFFLRNFAQVLGENGQIPILLAAWSPPLIGVMGSLGLLLHLEDG | failed
MQRFLSIALALCVGLTLSLDASAKRFGGGKSSGSAPIHQTRQATPTTPAAAPTVPGRAPAAASGASRWLGPLAGLAAGGLLASMFMGDGFEGFQIMDFLIVALIAFLVFRFIAARRRQQQPQMAMPGHAPMQREAHAQPAQPSIFGGSAAPAATAAPVINAPAWFNEQSFLAAARNHFQSLQQHWDANEMDKISEFVTPQMLEFLKRERAELGDGFQSTYIDNLEVQLDGVDDRADRTDATLTFRGVSKNSRFDQGEVFSESWHMVRAQGENQPWLVAGIRQNS | failed
MTQDGTNILILGSDQRVTQGSTDARTDTIMVVNVGNHAKKIKMVSFMRDTLINIPGYSYNDNSYDLKLNSAFNLGEQEDHHGAEYVRRALKHNFDIDIKYYVMVDFETFAEAIDTLFPNGVKIDAKFATVGGVAVDSVEVPDDLRMKNGVVPNQTIEVGEQRMDGRTLLNYARFRKDDEGDFGRTVRQQQVMSAVMSQIKDPTKLFTGSAAIGKIYALTSTNVSFPFVVKNGVSVLGSGKNGVEHVTIPENGDWVDEYDMYGGQALYIDFDKYQKTLAKLGLRLEHHHHHH | not failed
MGAIPKTGTISPEQKDSQEKNLFQKIWSWEIGVIPLPLYTVLAVIIILAAYYNELPANMLGGFAIIMILGVFLGDIGQRIPILKDIGGPAILSLFVPSFLVFYNVLNSTSLDAVTNLMKTSNFLYFYIACLVVGSILGMNRIVLIQGFIRMFVPLVAGTIAAVAAGILVGFIFGYSAYDSFFFVVVPIIAGGIGEGILPLSIAYSQILGSSADVFVSQLVPAAIIGNVFAIICAALMKKLGDKRPDLNGNGRLVKSKKANEIFNQKEAEAKIDFKLMGAGVLLACTFFIFGGLLEKFIFIPGAILMIISAAAVKYANILPKKMEEGAYQLYKFISSSFTWPLMVGLGILFIPLDDVASVISIPFVIICISVVIAMIGSGYFVGKLMNMYPVESAIVTCCHSGLGGTGDVAILSASGRMGLMPFAQISTRLGGAGTVICATVLLRFFTS | failed
MSKTDTAAVEATEENSNETTSDAATSSSGEKEAEFDNKIEADRSRRFDFLLKQTEIFTHFMTNSAKSPTKPKGRPKKIKDKDKEKDVADHRHRKTEQEEDEELLAEDSATKEIFRFDASPAYIKSGEMRDYQIRGLNWMISLYENGINGILADEMGLG | failed
MKALHFGAGNIGRGFIGKLLADAGIQLTFADVNQVVLDALNARHSYQVHVVGETEQVDTVSGVNAVSSIGDDVVDLIAQVDLVTTAVGPVVLERIAPAIAKGLVKRKEQGNESPLNIIACENMVRGTTQLKGHVMNALPEDAKAWVEEHVGFVDSAVDRIVPPSASATNDPLEVTVETFSEWIVDKTQFKGALPNIPGMELTDNLMAFVERKLFTLNTGHAITAYLGKLAGHQTIRDAILDEKIRAVVKGAMEESGAVLIKRYGFDADKHAAYIQKILGRFENPYLKDDVERVGRQPLRKLSAGDRLIKPLLGTLEYSLPHKNLIQGIAGAMHFRSEDDPQAQELAALIADKGPQAALAQISGLDANSEVVSEAVTAYKAMQ | not failed
MDSGCWLFGGEFEDSVFEERPERRSGPPASYCAKLCEPQWFYEETESSDDVEVLTLKKFKGDLAYRRQEYQKALQEYSSISEKLSSTNFAMKRDVQEGQARCLAHLGRHMEALEIAANLENKATNTDHLTTVLYLQLAICSSLQNLEKTIFCLQKLISLHPFNPWNWGKLAEAYLNLGPALSAALASSQKQHSFTSSDKTIKSFFPHSGKDCLLCFPETLPESSLFSVEANSSNSQKNEKALTNIQNCMAEKRETVLIETQLKACASFIRTRLLLQFTQPQQTSFALERNLRTQQEIEDKMKGFSFKEDTLLLIAEVMGEDIPEKIKDEVHPEVKCVGSVALTALVTVSSEEFEDKWFRKIKDHFCPFENQFHTEIQILA | failed
MTATAQQLEYLKNSIKSIQDYPKPGILFRDVTSLLEDPKAYALSIDLLVERYKNAGITKVVGTEARGFLFGAPVALGLGVGFVPVRKPGKLPRETISETYDLEYGTDQLEIHVDAIKPGDKVLVVDDLLATGGTIEATVKLIRRLGGEVADAAFIINLFDLGGEQRLEKQGITSYSLVPFPGH | not failed
SEAKVTRSCAETRQVLGARGYSLNLIPPALISGEHLRVCPQEYTCCSSETEQRLIRETEATFRGLVEDSGSFLVHTLAARHRKFDEFFLEMLSVAQHSLTQLFSHSYGRLYAQHALIFNGLFSRLRDFYGESGEGLDDTLADFWAQLLERVFPLLHPQYSFPPDYLLCLSRLASSTDGSLQPFGDSPRRLRLQITRTLVAARAFVQGLETGRNVVSEALKVPVSEGCSQALMRLIGCPLCRGVPSLMPCQGFCLNVVRGCLSSRGLEPDWGNYLDGLLILADKLQGPFSFELTAESIGVKISEGLMYLQENSAKVSAQVFQECGPPDPVPARNRRAPPPREEAGRLWSMVTEEERPTTAAGTNLHRLVWELRERLARMRGFWARLSLTVCGDSRMAADASLEAAPCWTGAGRGRYLPPVVGGSPAEQVNNPELKVDASGPDVPTRRRRLQLRAATARMKTAALGHDLDGQDADEDASGSGGGQQYADDWMAGAVAPPARPPRPPYPPRRDGSGGKGGGGSARYNQGRSRSGGASIGFHTQTILILSLSALALLGPR | failed
MRILFVGPPLYGLLYPVLSLAQAFRVNGHEVLIASGGKFAQKAAEAGLVVFDAAPGFDSEAGYRRQEALRKENNIGTKMGNFSFFSEEMTDPLVAFAGQWRPDLIVYPPLGVVGPLIAAKYDIPVVMQTVGFGHTPWHIKGVTKSLSNAYRRHGVSAPPRDLAWIDVTPPSMSILQNDGEPVISMQYVPYNGGAVWEEWWERTPDRKRLLVSLGTVKPMVDGLDLISWVMDSAGEVDAEIILHLPANARSDLRSLPPNVRLVDWLPMGVFLNGADGFIHHGGAGNTLTALHAGIPQIVFGQGADRPVNARAVVERGCGIIPGKSGLTSSMINTFLGNRALREASQEVAAEMAAQPCPTEVAKKLIAMLQHG | failed
MNNKFKDFFGFGDNDSYEERDAYEEHYDEQEEMQNSNRPTNSRDSNVVSIKAGQAGSGPSKIVLYEPRVYSDAKEVAQNLLNQRAIIINFSRMDDASARRVVDFITGTVYALNGEIQRIGDKIFLATPPKFETDGKITELLDKKDTLG | failed
MINGNTSGLKEYILENLDKLYSTKIEKGKIINQEIVDYISEISNKINREINVAIDRNGNIIDISIGDSSTVNLPVIPVYDKKLSGVRIIHTHPSGNPHLSSVDISALIKLKLDCIVSIGVSEEGVTGYEVAICSIVNDELTYDRTLLENLDDFDYLEEIKEVEENLRKRNITEDDKEYALLIGIDKEEYLDELEELASACDVKVVGRFFQKRSKPDPLFLIGSGKIQELALTRQVRKVNLLIFDEELSGLQLKMIEEVTGCKVIDRTTLILEIFARRARTREAKLQVELAQLKYRSNRLIGFGVTMSRLGGGVGTKGPGEKKLEIDRRVIKKTIAYLNNELENIKKIRNTQRSKREDSGMPRVSLVGYTNVGKSTLRNVLVDMYQNDKTLKKEEVLSQDMLFATLDTTTRTIELKDKRIVSLTDTVGFIQKLPHDLVESFKSTLEEVIFSDLIIHVADISSKNVIEQIDAVEDVLEELNCLDKTKILLLNKIDNVTKDNSFPLMEKKIEEIKAKYSNYQILIISAKNRFNIDELMELIKKNLIVKTYNCKLLIPYVNTEIAARVHRNTIVKSESFVDEGIILEVVMNEKEYNKFKDFIFN | failed
MLFNKMKNYKGFTAVKELWLLNLFILSVFTLSFSVSAASNDVSINNNELIGISYNTIQSDQIVVVFSFTKNITSLPIVKTSMTPAFVEVTFDANTYGKDLTETLINHAGIKGINLDAKTGKVVALISLEKLAVFDVSLNNEKEFSITFNYGESAEIVETLSPAGDDFINSIESIDFRLNGDNEGQILVYLKDSMLAADVNDKLGKLNVEFHNTEIIDDLLYKLDVTDFGTLVTSIETFKEGRNARLVIDVESGFIFTQKQEENLFILTVKKKPEKAPTYLGDTDDFTGRSISLSFQDIPVRTVLQIIADYNEFNLIISDTVTGNITLRLDGVPWDQALSIILKVKGLDKRMQGNILMVAPSDELAAREAQSLQAKQQVEELATLYSEYLQINYAKAAEFSELIKNEDTSILSDRGSVSVDERTNTLLIRDTAKSIEDIKRMITILDVPVRQVVIEARMVTVKDNMNEELGIRWGVTNTDGEFATSGSIEGASSANGTRGVTTPGVGQVPTIGDGLNVNLPVANAAGTIAFQVARLANGTILDLELSALEKENKGEVIASPRITTANQKEAYIEQGVEIPYQEAASSGATATQFKKAVLSLTVTPHITPDDKIILDLVVTQDTISDITSGFAPAIDTQRIGTQVLVNNGETIVLGGIYQQAIISTVSKIPILGDIPYLGWLFRNSSQLNEKKELLIFVTPRIVTEHF | failed
